The text below walks through data of patent US20060029546A1 (DECODE GENETICS, published 2006).

Assay [1] addresses T1, ErbB4 K751A bait (cytoplasmic domain, mutation in the ATP binding site) (human, UniProt Q15303 676-1308).
T1 construct: not shown: fusion partner encoded by the bait vector
Kind of assay: yeast two-hybrid growth assay. An excerpt: (§1) To characterize components of the NRG1 signaling pathway downstream of the ErbB4 receptor tyrosine kinase, the predominant neuronal receptor for NRG1, the cytoplasmic domain of ErbB4 was used as a bait in a yeast two-hybrid interaction screen. The ErbB4 bait was created by cloning the entire cytoplasmic domain into the vector pGBKT7 (Clontech, Palo Alto, Calif.) using homologous recombination in the yeast strain AH109 (Clontech, Palo Alto, Calif.). Liner vector and the cytoplasmic fragment of ErbB4 were transfected into the yeast strain using the lithium acetate (LiAc) method and plated onto […] negative selection media plates. Plasmid DNA was isolated from positive colonies and the presence of ErbB4 was verified by sequencing.
(§2) The ErbB4 bait was capable of tyrosine auto-phosphorylation in yeast cells. Tyrosine phosphorylation was absent from ErbB4 baits which contained mutations in the ATP binding site (K751A) or the catalytic site (D843A). Homo sapiens random prime hippocampus cDNA library was created using the ZAP-cDNA Gigapack III Gold Cloning Kit (Stratagene) and transformed into yeast using Li Acetate. Screening of a human hippocampus cDNA library yielded a partial cDNA clone comprising the SH2 and SH3 domains of Fyn (amino acids 60-252 of SEQ ID NO: 3). SH2 domains are protein modules able to bind phosphorylated tyrosine residues. […]

Assay [2] has as its target T2, ErbB4 D843A bait (cytoplasmic domain, mutation in the catalytic site) (human, UniProt Q15303 676-1308).
T2 construct: not shown: fusion partner encoded by the bait vector
Kind of assay: yeast two-hybrid growth assay.
Text: as §1, §2

B1: partial cDNA clone comprising the SH2 and SH3 domains of Fyn (amino acids 60-252) (enzyme)
chain: not shown
notes: The clone came from a human hippocampus cDNA library; also called Fyn clone; p59Fyn; not shown: fusion partner of the yeast two-hybrid library (prey) vector
B1: the binding result in assay [1] and in assay [2] was “no binding” in each case.
